Laboratory results as given in patent US20220033501A1 (SHANGHAI PHARMAEXPLORER, published 2022).
Where a chain is given by its changes, count along the chain named.

T1: murine TIM-3 extracellular domain protein with hFc tag (mTIM-3-hFc) (mouse, UniProt Q8VIM0 29-191)
T1 construct: also called mouse TIM-3 extracellular domain protein; not shown: human IgG Fc fragment (hFc) of the pCpC vector
T1 chain: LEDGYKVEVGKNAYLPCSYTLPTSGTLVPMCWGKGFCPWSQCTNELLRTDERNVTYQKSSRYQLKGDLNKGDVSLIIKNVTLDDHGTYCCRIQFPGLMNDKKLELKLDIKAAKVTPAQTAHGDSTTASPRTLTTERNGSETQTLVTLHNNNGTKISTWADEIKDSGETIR

T2: human TIM-3 on CHOK1 stable cell line (CHOK1-hTIM-3) (human, UniProt Q8TDQ0 22-301)
T2 sequence: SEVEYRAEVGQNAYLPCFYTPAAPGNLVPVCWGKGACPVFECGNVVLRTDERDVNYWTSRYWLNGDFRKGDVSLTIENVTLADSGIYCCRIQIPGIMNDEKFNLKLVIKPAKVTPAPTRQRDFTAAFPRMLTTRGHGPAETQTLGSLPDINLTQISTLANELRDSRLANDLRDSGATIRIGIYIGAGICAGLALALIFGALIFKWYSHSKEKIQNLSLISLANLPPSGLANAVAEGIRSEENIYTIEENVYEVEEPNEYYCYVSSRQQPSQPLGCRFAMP

T3: TIM-3 protein on human peripheral blood mononuclear lymphocytes (PBMC) (human, UniProt Q8TDQ0 22-301)
T3 sequence: T2 sequence

T4: human TIM-3 extracellular domain protein with hFc tag (hTIM-3-hFc) (human, UniProt Q8TDQ0 22-200)
T4 construct: not shown: human IgG Fc fragment (hFc) of the pCpC vector
T4 sequence: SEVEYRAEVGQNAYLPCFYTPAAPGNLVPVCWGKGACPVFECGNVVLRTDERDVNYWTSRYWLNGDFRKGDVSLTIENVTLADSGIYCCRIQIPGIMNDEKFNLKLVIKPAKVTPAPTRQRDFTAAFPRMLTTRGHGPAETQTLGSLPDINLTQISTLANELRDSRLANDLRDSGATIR

T5: monkey TIM-3 extracellular domain protein with hFc tag (cTIM-3-hFc) (monkey)
T5 construct: not shown: human IgG Fc fragment (hFc) of the pCpC vector
T5 chain: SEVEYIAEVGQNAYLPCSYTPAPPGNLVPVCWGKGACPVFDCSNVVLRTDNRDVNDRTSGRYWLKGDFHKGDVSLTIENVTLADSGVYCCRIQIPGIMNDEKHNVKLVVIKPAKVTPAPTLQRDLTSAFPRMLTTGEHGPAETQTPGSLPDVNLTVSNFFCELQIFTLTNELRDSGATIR

T6: monkey TIM-3 on CHOK1 stable cell line (CHOK1-cTIM-3) (monkey)
T6 chain: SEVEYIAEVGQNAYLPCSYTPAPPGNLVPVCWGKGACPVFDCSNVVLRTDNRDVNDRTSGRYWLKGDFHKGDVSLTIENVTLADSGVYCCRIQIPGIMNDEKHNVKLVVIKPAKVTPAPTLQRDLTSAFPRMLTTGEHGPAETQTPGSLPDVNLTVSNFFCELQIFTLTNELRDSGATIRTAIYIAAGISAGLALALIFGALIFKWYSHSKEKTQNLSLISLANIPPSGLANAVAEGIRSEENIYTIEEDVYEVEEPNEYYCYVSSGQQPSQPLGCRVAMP

B1: 57F4E5 fully human TIM-3 antibody (human IgG4, kappa) (antibody, V domains shown)
VH: EVQLVESGGGLVQPGGSLRLSCAASGFTFSSYWMSWVRQAPGKGLEWVANIKQDGSEKYYVDSVKGRFTISRDSAKNSLYLQMNSLRAEDTAMYFCARDSNFFDYWGQGTLVTVSS
VL: ETVMTQSPATLSVSPGERATLSCRASQSVSSNLAWYQRKPGQAPRLLIYFSSTRATGIPARFSGSGSGTEFTLTISSLQSEDFAVYYCQQYNNWPLTFGGGTKVEIK
B2: 134H3G6 fully human TIM-3 antibody (human IgG4, kappa) (antibody, V domains shown)
VH: EVQLVESGGGLVQPGGSLRLSCAASGFTFSNSWMTWVRQAPGKGLEWVANIKQAGTEKYYVDSVKGRFTISRDNAKNSLYLQMNSLRAEDTAVYYCNSGSNYFDYWGQGTLVTVSS
VL: B1 VL with T2I, S26R, S28N, V29F, S30Y, R38Q, F50G, S51A
B3: 18D2H2 fully human TIM-3 antibody (human IgG4, kappa) (antibody, V domains shown)
VH: EVQLVESGGDLVQPGGSLRLSCAASGFTFSTYWMTWVRQAPGRGLEWVANIKQDGSAKYYVDSVKGRFTLSRDDAKNSLYLQMNSLRAEDTAVYYCARGSNWFDYWGQGTLVTVSS
VL: B1 VL with S26N, S28N, S30Y, R38Q, F50D, S51A, I58F
B4: 215A8F2 fully human TIM-3 antibody (human IgG4, kappa) (antibody, V domains shown)
VH: QVQLQQWGAGLLKPSETLSLTCTVYGGSFSGYYWNWIRQPPGKGLEWLGEINHSGSTNYNPSLKRRVTISVDTSKNQFSLKLSSVTAADTAVYYCARVYYYGPFDFWGQGTLVTVSS
VL: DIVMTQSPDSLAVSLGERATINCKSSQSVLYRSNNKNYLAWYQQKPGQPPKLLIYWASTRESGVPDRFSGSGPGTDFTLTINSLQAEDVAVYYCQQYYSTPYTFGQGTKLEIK
B5: 7A4F10 fully human TIM-3 antibody (human IgG4, kappa) (antibody, V domains shown)
VH: EVQLLESGGGLVQPGGSLRLSCAASGFTFRTHLISWVRQAPGKGLEWVAAITGSGGSTYYADSVKGRFIISRDNSKNTLFLQMNSLRAEDTAVYYCAKDGGSGSYDDFWGQGTLVTVSS
VL: ETVLTQSPVTLSLSPGERATLSCRASQSVGSYLAWYQQKPGQAPRLLIYDASNRATGIPARFSGSGSGTDFTLTISSLEPEDFAVYYCQQRSNWPPTFGQGTKVEIK

Target: T1, murine TIM-3 extracellular domain …
Assay: ELISA, coated mouse TIM-3 ECD protein, 0 nM antibody

| Binder | OD450 |
| --- | --- |
| B1 | 0.24 |
| B2 | 0.22 |
| B3 | 0.22 |
| B4 | 0.21 |
| B5 | 0.23 |

What follows are binders tested against T2, human TIM-3 on CHOK1 stable cell line … (assay: FACS, CHOK1-hTIM-3 cells, 0.064 nM antibody).

| Binder | Mean fluorescence intensity |
| --- | --- |
| B1 | 23.7 |
| B2 | 34.5 |
| B3 | 32.9 |
| B4 | 20.5 |
| B5 | 28.8 |

Target: T1, murine TIM-3 extracellular domain …
Assay: ELISA, coated mouse TIM-3 ECD protein, 0.6667 nM antibody

| Binder | OD450 |
| --- | --- |
| B1 | 0.28 |
| B2 | 0.23 |
| B3 | 0.22 |
| B4 | 0.24 |
| B5 | 0.25 |

These binders were tested against T2, human TIM-3 on CHOK1 stable cell line … (assay: FACS, CHOK1-hTIM-3 cells, 1.6 nM antibody).

| Binder | Mean fluorescence intensity |
| --- | --- |
| B1 | 156 |
| B2 | 207 |
| B3 | 232 |
| B4 | 235 |
| B5 | 282 |

What follows are binders tested against T3, TIM-3 protein on human peripheral blood … (assay: cell-based or functional assay).

| Binder | IFN-γ production (donor X); antibody 0.1 µg/ml, N = 1 [pg/mL] | IFN-γ production (donor X); antibody 0.1 µg/ml, N = 2 [pg/mL] | IFN-γ production (donor X); antibody 1 µg/ml, N = 1 [pg/mL] | IFN-γ production (donor X); antibody 1 µg/ml, N = 2 [pg/mL] | IFN-γ production (donor X); antibody 10 µg/ml, N = 1 [pg/mL] | IFN-γ production (donor X); antibody 10 µg/ml, N = 2 [pg/mL] | IFN-γ production (donor X); antibody '0' (4th head as printed), N = 1 [pg/mL] | IFN-γ production (donor X); antibody '0' (4th head as printed), N = 2 [pg/mL] | IFN-γ production (donor X); antibody '0' (5th head as printed), N = 1 [pg/mL] | IFN-γ production (donor X); antibody '0' (5th head as printed), N = 2 [pg/mL] |
| --- | --- | --- | --- | --- | --- | --- | --- | --- | --- | --- |
| B1 | 2800 | 2980 | 3550 | 3150 | 3080 | 3340 | 2870 | 2740 | 2160 | 2400 |
| B2 | 2610 | 2720 | 3250 | 2890 | 3460 | 3480 | 2390 | 2430 | 2510 | 2370 |
| B3 | 2660 | 2650 | 3000 | 3140 | 2810 | 3070 | 2280 | 2590 | 2340 | 2170 |
| B4 | 2410 | 3170 | 2780 | 2030 | 3000 | 2470 | 2100 | 2300 | 1970 | 2400 |
| B5 | 2930 | 2730 | 2920 | 2780 | 2900 | 2360 | 2340 | 2370 | 2290 | 2230 |

Target: T1, murine TIM-3 extracellular domain …
Assay: ELISA, coated mouse TIM-3 ECD protein, 6.6667 nM antibody

| Binder | OD450 |
| --- | --- |
| B1 | 0.54 |
| B2 | 0.36 |
| B3 | 0.31 |
| B4 | 0.38 |
| B5 | 0.36 |

What follows are binders tested against T4, human TIM-3 extracellular domain … (assay: ELISA, coated human TIM-3 ECD protein, 0.0067 nM antibody).

| Binder | OD450 |
| --- | --- |
| B1 | 0.23 |
| B2 | 0.27 |
| B3 | 0.32 |
| B4 | 0.27 |
| B5 | 0.32 |

Target: T5, monkey TIM-3 extracellular domain …
Assay: ELISA, coated monkey TIM-3 ECD protein, 0.0007 nM antibody

| Binder | OD450 |
| --- | --- |
| B1 | 0.18 |
| B2 | 0.15 |
| B3 | 0.15 |
| B4 | 0.15 |
| B5 | 0.14 |

Target: T6, monkey TIM-3 on CHOK1 stable cell line …
Assay: FACS, CHOK1-cTIM-3 cells, 1.6 nM antibody

| Binder | Mean fluorescence intensity |
| --- | --- |
| B1 | 207 |
| B2 | 326 |
| B3 | 333 |
| B4 | 252 |
| B5 | 177 |

What follows are binders tested against T2, human TIM-3 on CHOK1 stable cell line … (assay: FACS, CHOK1-hTIM-3 cells, 0.32 nM antibody).

| Binder | Mean fluorescence intensity |
| --- | --- |
| B1 | 69.7 |
| B2 | 96.6 |
| B3 | 93.1 |
| B4 | 73.6 |
| B5 | 90.1 |
